Series [1] has as its target DgeRecA (Deinococcus geothermalis DSM 11302, UniProt Q1IWF2 1-358). As to the kind of experiment: EMSA; 8-10 mM Mg2+ (most efficient), ATPgS + ATP, 37 C; 20 mM potassium phosphate pH 7.5, 0-10 mM MgCl2, 110 uM ATPgS + 300 uM ATP (ssDNA, 9 uM RecA) or 180 uM ATPgS + 500 uM ATP (dsDNA, 12 uM RecA), 30 min at 37 C (25-75 C series for ssDNA), 0.8% agarose gel. Particulars: protein: recombinant; tags: none (native start and stop codons, NdeI/HindIII in pET-30Ek/LIC); label: 5'-fluorescein.

Series [2] concerns the target DmuRecA (Deinococcus murrayi DSM 11303, UniProt E7CG23 1-359). The description is as above. Conditions: protein: recombinant; tags: none (native start and stop codons, NdeI/XhoI in pET-30Ek/LIC); label: 5'-fluorescein.

Sequence of DgeRecA (Q1IWF2 whole entry): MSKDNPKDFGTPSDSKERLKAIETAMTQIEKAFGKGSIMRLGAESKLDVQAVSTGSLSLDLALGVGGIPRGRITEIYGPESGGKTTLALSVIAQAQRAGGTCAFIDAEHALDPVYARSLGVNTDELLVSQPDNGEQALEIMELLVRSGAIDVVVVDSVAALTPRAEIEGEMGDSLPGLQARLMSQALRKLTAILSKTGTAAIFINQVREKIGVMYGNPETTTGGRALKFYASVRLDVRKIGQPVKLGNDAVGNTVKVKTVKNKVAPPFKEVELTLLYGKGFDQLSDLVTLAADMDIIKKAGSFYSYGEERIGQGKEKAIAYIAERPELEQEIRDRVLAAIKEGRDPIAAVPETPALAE

Take TTTTTTTTTTTTTTTTTTTTTTTTTTTTTTTTTTT (ssDNA) [oligo(dT)35]: the binding result in series [1] and in series [2] was “binds” each time.

Source of the values: paper PMC3103430, “RecA Proteins from Deinococcus geothermalis and Deinococcus murrayi - Cloning, Purification and Biochemical Characterisation”.
